Assay results from patent US20210277441A1, “METHOD OF SELECTING A POLYPEPTIDE OF INTEREST” (IMPERIAL COLLEGE INNOVATIONS LIMITED, priority 2018, published 2021).

Assays:
[1] = substrate: CC1=NCCC1; test: Kinetics of parental MsIRED, 2-methylpyrroline reduction with NADPH; assay type: biochemical, Myxococcus stipitatus; settings: other: cofactor NADPH (0.25 mM); enzyme 1.2 uM
[2] = substrate: CC1=NCCC1; test: Kinetics of evolved MsIRED-s, 2-methylpyrroline reduction with NADH; assay type: biochemical, Myxococcus stipitatus; settings: other: cofactor NADH (0.25 mM); enzyme 1.25 uM
[3] = substrate: CC(C)O; test: purified protein, by the assay type; assay type: biochemical, Clostridium beijerinckii; settings: other: cofactor NADP+ (1 mM); enzyme 110 nM

B1: Myxococcus stipitatus imine reductase (MsIRED), wild type, SEQ ID NO: 34 (Myxococcus stipitatus DSM 14675) (protein)
chain: MKPTLTVIGAGRMGSALIKAFLQSGYTTTVWNRTKAKSEPLAKLGAHLADTVRDAVKRSDIIVVNVLDYDTSDQLLRQDEVTRELRGKLLVQLTSGSPALAREQETWARQHGIDYLDGAIMATPDFIGQAECALLYSGSAALFEKHRAVLNVLGGATSHVGEDVGHASALDSALLFQMWGTLFGTLQALAISRAEGIPLEKTTAFIKLTEPVTQGAVADVLTRVQQNRLTADAQTLASLEAHNVAFQHLLALCEERNIHRGVADAMYSVIREAVKAGHGKDDFAILTRFLK
Km [1]: 3.56 mM mM
kcat [1]: 89.8 min-1 min-1

B2: Myxococcus stipitatus imine reductase (MsIRED) variant MsIRED-s (pLS133_1), N32E/R33V/T34R/K37R, SEQ ID NO: 35 (Myxococcus stipitatus DSM 14675; … (protein)
chain: MKPTLTVIGAGRMGSALIKAFLQSGYTTTVWEVRKARSEPLAKLGAHLADTVRDAVKRSDIIVVNVLDYDTSDQLLRQDEVTRELRGKLLVQLTSGSPALAREQETWARQHGIDYLDGAIMATPDFIGQAECALLYSGSAALFEKHRAVLNVLGGATSHVGEDVGHASALDSALLFQMWGTLFGTLQALAISRAEGIPLEKTTAFIKLTEPVTQGAVADVLTRVQQNRLTADAQTLASLEAHNVAFQHLLALCEERNIHRGVADAMYSVIREAVKAGHGKDDFAILTRFLK
Km [2]: 19.57 mM mM
kcat [2]: 78.1 min-1 min-1

B3: Clostridium beijerinckii alcohol dehydrogenase (CBADH), wild type, SEQ ID NO: 1 (Clostridium beijerinckii) (protein)
chain: MKGFAMLGINKLGWIEKERPVAGSYDAIVRPLAVSPCTSDIHTVFEGALGDRKNMILGHEAVGEVVEVGSEVKDFKPGDRVIVPCTTPDWRSLEVQAGFQQHSNGMLAGWKFSNFKDGVFGEYFHVNDADMNLAILPKDMPLENAVMITDMMTTGFHGAELADIQMGSSVVVIGIGAVGLMGIAGAKLRGAGRIIGVGSRPICVEAAKFYGATDILNYKNGHIVDQVMKLTNGKGVDRVIMAGGGSETLSQAVSMVKPGGIISNINYHGSGDALLIPRVEWGCGMAHKTIKGGLCPGGRLRAEMLRDMVVYNRVDLSKLVTHVYHGFDHIEEALLLMKDKPKDLIKAVVIL
Km [3]: 5.80 mM mM
kcat [3]: 1185.6 min-1 min-1
